Laboratory results: patent US20070154901A1 (ANAPHORE, published 2007)

B1: recombinant full length tetranectin (TN123) (other)
chain: GEPPTQKPKKIVNAKKDVVNTKMFEELKSRLDTLAQEVALLKEQQALQTVCLKGTKVHMKCFLAFTQTKTFHEASEDCISRGGTLSTPQTGSENDALYEYLRQSVGNEAEIWLGLNDMAAEGTWVDMTGARIAYKNWETEITAQPDGGKTENCAVLSGAANGKWFDKRCRDQLPYICQFGIV
notes: Found as a trimer in solution; also called rTN123
B2: fusion protein H6FXTN12 (other)
chain: MGSHHHHHHGSIEGRGEPPTQKPKKIVNAKKDVVNTKMFEELKSRLDTLAQEVALLKEQQALQTV
notes: Uncleaved fusion protein; Formed homo-trimers upon cross-linking; also called H6-rTN12
B3: fusion protein H6FXtripb-scFv(CEA6) (scFv)
chain: MGSHHHHHHGSIQGRSPGTEPPTQKPKKIVNAKKDVVNTKMFEELKSRLDTLAQEVALLKEQQALQTGSQVQLQQSGAEVKKPGSSVKVSCKASGGTFSNSPINWLRQAPGQGLEWMGSIIPSFGTANYAQKFQGRLTITADESTSTAYMELSSLRSEDTAVYYCAGRSHNYELYYYYMDVWGQGTMVTVSSGGGGSGGGGSGGGGSDIQMTQSPSTLSASIGDRVTITCRASEGIYHWLAWYQQKPGKAPKLLIYKASSLASGAPSRFSGSGSGTDFTLTISSLQPDDFATYYCQQYSNYPLTFGGGTKLEIKRAAAEQKLISEEDLNGA
notes: About 38 kDa per monomer; Only its self-association was tested
B4: recombinant tetranectin derivative TN23 (other)
chain: VVNTKMFEELKSRLDTLAQEVALLKEQQALQTVCLKGTKVHMKCFLAFTQTKTFHEASEDCISRGGTLSTPQTGSENDALYEYLRQSVGNEAEIWLGLNDMAAEGTWVDMTGARIAYKNWETEITAQPDGGKTENCAVLSGAANGKWFDKRCRDQLPYICQFGIV
notes: It is a trimer by gel filtration but appeared monomeric after DMSI cross-linking
B5: recombinant tetranectin derivative TN3 (other)
chain: ALQTVCLKGTKVHMKCFLAFTQTKTFHEASEDCISRGGTLSTPQTGSENDALYEYLRQSVGNEAEIWLGLNDMAAEGTWVDMTGARIAYKNWETEITAQPDGGKTENCAVLSGAANGKWFDKRCRDQLPYICQFGIV
notes: Appeared monomeric
B6: tetranectin fusion protein CIIH6FXTN123 (other)
chain: MVRANKRNEALRIESALLNKIAMLGTEKTAEGGSHHHHHHGSIEGRGEPPTQKPKKIVNAKKDVVNTKMFEELKSRLDTLAQEVALLKEQQALQTVCLKGTKVHMKCFLAFTQTKTFHEASEDCISRGGTLSTPQTGSENDALYEYLRQSVGNEAEIWLGLNDMAAEGTWVDMTGARIAYKNWETEITAQPDGGKTENCAVLSGAANGKWFDKRCRDQLPYICQFGIV
notes: Uncleaved fusion protein; Forms homo-trimers, and forms hetero-trimers with TN123; also called H6CIIFXTN123

Legend:
[1] = target: the molecule itself; experiment: analytical gel filtration on Superose 12; self-association
Description: (§1) FIG. 9: Gel filtration analysis of TN123, TN23, and TN3 Analytical gel filtration of the recombinant tetranectin derivatives TN123, TN23, and TN3 were performed on a Superose 12 HR 10/30 column (Pharmacia, Sweden) with a total volume of 25 ml in 100 mM NaCl and 50 mM Tris-HCl pH 8 and a flow rate of 0.2 ml/min. Vertical bars at peak maxima identify elution profiles for each of the three proteins.
(§2) Analytical gelfiltration of the recombinant tetranectin derivatives TN123, TN3, and TN23 (FIG. 9) were performed on a Superose 12 HR 10/30 column (Pharmacia, Sweden) with a total volume of 25 ml in 100 mM NaCl and 50 mM Tris-HCl pH 8 and a flow rate of 0.2 ml/min. The Kₐᵥ value is defined by, Kₐᵥ=(Ve−Vo)/(Vc−Vo).

[2] = target: the molecule itself; experiment: DMSI cross-linking and SDS-PAGE; self-association
Description: (§3) The recombinant tetranectin derivatives TN123, TN3, and TN23, together with the fusion proteins CIIH6FXTN123 and H6FXTN12 or mixtures of these derivatives at 1 mg/ml concentrations in cross-linking buffer (0.1 M Sodium borate, pH 9.1) were incubated with dimethylsuberimidate (DMSI, Sigma). 10 μl aliquots of protein solution were incubated with 1 μl aliquots of DMSI stock solution (20 mg/ml in cross-linking buffer) for 30 minutes at 25° C. before addition of 2 μl quenching buffer (3 M Tris-HCl, pH 9). Subunit exchange between preformed homo-oligomers was induced by subjecting protein mixtures to heat shock treatment. Five μl aliquots of each protein solution (1 mg/ml stocks) were mixed at 0° C. in standard polypropylene microcentrifuge tubes, transferred to a water bath at 70° C. for the time spans indicated, and then further incubated for 15 minutes at 25° C. before reaction with DMSI.
Subunit exchange could be induced by incubating the protein mixture at 70° C. for 15 seconds or longer before cooling to room temperature and addition of DMSI. […] It should be noted, that molecular weight markers have only been included on the SDS-PAGE gels for crude calibration and orientation of the gels.

[3] = target: B1; experiment: DMSI cross-linking and SDS-PAGE after heat treatment at 70 C
Description: as §3

[4] = target: the molecule itself; experiment: DMSI cross-linking with rising DMSI at room temperature, SDS-PAGE; self-association
Description: After completion of the refolding procedure each column was washed with 300 ml buffer containing 0.5 M NaCl and 50 mM Tris-HCl pH 8 to wash away glutathione. The refolded fraction of each protein was then eluted from the NTA-agarose matrix by addition of 20 mM EDTA to the elution buffer. After addition of solid urea to achieve a final concentration of about 8 M to each protein sample and dilution or dialysis to reduce NaCl concentrations to below 5 mM, final purification of each correctly folded fusion protein product was then accomplished by ion exchange chromatography (S-Sepharose, Pharmacia, 1,6 (i.d.) by 90 centimeter column in a buffer containing 8 M urea, 5 mM Tris-HCl (from 1 M stock solution at pH 8) and 25 mM sodium acetate (from 1 M stock solution at pH 5), eluted at 2 ml/min). After dialysis against aqueous buffers (e.g. phosphate buffered saline) each pure and correctly refolded fusion protein was recovered in yields of 2-6 mg per litre of culture grown. […] Reactions were quenched by addition of 5 μl 3M Tris-HCl pH 9 and the samples analyzed by SDS-PAGE under reducing conditions (FIG. 21). Like tetranectin, the H6FXtripb-scFV-(CEA6) fusion protein, of approximately 38 kDa, is hereby shown to be a trimer in solution.

[5] = target: the molecule itself; experiment: analytical gel filtration on Superose 12
Description: as §1, §2

[6] = target: B1; experiment: DMSI cross-linking of the mixture with and without heat treatment at 70 C, SDS-PAGE
Description: as §3

[7] = target: B1; experiment: DMSI cross-linking and SDS-PAGE after subunit exchange at 70 C for 15 s or longer; no exchange after 16 h at room temperature
Description: FIG. 10: Cross-linking analysis of TN123 and CIIH6FXTN123. Samples of TN123, CIIH6FXTN123 and mixtures of both were incubated with DMSI and analyzed by SDS-PAGE (12% gel). Before addition of DMSI, protein mixtures were subjected to subunit exchange by incubation at 70° C. for varying length of time. Protein marker of 94, 68, 43 and 30 kDa, top to bottom (lane M). CIIH6FXTN123 fusion protein (lane 1). TN123 (lane 2). DMSI treated CIIH6FXTN123 (lanes 3 and 6). DMSI-treated TN123 (lane 4). Identical samples of DMSI treated mixtures of CIIH6FXTN123 and TN123 without heat exposure (lanes 5 and 7) and heat treated for 2.5 sec, 15 sec, 2.5 min. and 10 min., respectively, before treatment with DMSI (lanes 8-11).
as §3, with “Five μl aliquots of each protein solution (1 mg/ml stocks) were mixed at 0° C. in standard polypropylene microcentrifuge tubes, transferred to a water bath at 70° C. for the time spans indicated, and then further incubated for 15 minutes at 25° C. before reaction with DMSI.” left out

Question: Does B1 bind [1]?
Answer: Result: binds

Question: Does B2 bind [2]?
Answer: Result: binds

Question: Does B2 bind [3]?
Answer: Result: binds

Question: Does B3 bind [4]?
Answer: Result: binds

Question: Does B4 bind [1]?
Answer: Result: binds

Question: Does B5 bind [5]?
Answer: Result: no binding

Question: Does B5 bind [6]?
Answer: Result: no binding

Question: Does B6 bind [2]?
Answer: Result: binds

Question: Does B6 bind [7]?
Answer: Result: binds
